From patent publication US20150182581A1 (COUNCIL OF SCIENTIFIC AND INDUSTRIAL RESEARCH, published 2015)

Each binder was assayed against ASK-1 + Nef (Nef and ASK1g co-transfected in ATCC CRL-1573 cells) (HIV-1; human, UniProt Q99683 1-1050) (assay: cell-based or functional assay).
ASK-1 + Nef (Nef and ASK1g co-transfected in ATCC CRL-1573 cells), sequence (Q99683 1-1050): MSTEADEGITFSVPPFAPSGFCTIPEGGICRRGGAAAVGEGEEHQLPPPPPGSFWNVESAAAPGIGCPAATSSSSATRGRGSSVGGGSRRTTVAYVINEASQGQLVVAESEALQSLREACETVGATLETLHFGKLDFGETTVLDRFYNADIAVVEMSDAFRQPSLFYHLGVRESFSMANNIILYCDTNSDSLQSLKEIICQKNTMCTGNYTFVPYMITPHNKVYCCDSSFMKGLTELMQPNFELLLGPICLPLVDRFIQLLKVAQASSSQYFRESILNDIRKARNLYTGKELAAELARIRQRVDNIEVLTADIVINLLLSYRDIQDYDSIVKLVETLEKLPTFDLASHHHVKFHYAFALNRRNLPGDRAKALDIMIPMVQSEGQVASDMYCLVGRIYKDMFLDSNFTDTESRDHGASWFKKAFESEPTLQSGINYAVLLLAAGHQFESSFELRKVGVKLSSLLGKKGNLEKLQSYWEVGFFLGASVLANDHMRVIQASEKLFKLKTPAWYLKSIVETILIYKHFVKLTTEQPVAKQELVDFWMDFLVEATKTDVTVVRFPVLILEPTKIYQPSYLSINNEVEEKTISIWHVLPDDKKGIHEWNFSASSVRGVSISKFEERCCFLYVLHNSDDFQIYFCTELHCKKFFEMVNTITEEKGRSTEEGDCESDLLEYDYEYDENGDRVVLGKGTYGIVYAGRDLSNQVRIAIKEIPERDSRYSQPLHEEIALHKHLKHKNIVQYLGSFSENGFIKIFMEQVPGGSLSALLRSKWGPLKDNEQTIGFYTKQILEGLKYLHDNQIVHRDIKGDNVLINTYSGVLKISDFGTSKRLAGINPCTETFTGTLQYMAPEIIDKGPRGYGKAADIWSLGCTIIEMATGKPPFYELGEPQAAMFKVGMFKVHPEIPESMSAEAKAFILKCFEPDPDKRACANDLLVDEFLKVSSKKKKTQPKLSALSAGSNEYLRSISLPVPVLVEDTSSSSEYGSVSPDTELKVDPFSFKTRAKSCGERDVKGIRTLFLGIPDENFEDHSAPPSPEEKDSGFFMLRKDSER

**Q.** GENNCLLH [Peptide-2] was tested. Which “% of Annexin V cells means apoptotic cells” value did it give?
**A.** Its value is 25%.

**Q.** For LHGMEDPE [Peptide-4], which “% of Annexin V cells means apoptotic cells” value is on record?
**A.** The value was 23%.

**Q.** Which “% of Annexin V cells means apoptotic cells” value does the source give for TPGPGVRYP [Peptide-1] here?
**A.** The value was 22.4%.

**Q.** How did the “% of Annexin V cells means apoptotic cells” value turn out when DEVGEANN [Peptide-3] was run?
**A.** The value was 40.4%.

**Q.** Which “% of Annexin V cells means apoptotic cells” value does the source give for PVRPQVPLRP [Peptide-5] here?
**A.** Its value is 22.4%.
